The source of these data is article PMC11215065, “The HHV-6B U20 glycoprotein binds ULBP1, masking it from recognition by NKG2D and interfering with natural killer cell activation” (Frontiers in Immunology, 2024).

The target in the assay is T1, Soluble U20 extracellular domain (sU20) of HHV-6B (HHV-6B, nine N-linked glycosylation sites with high mannose glycans; after EndoH a single GlcNAc at each site).
T1 construct: HHV-6B U20 glycoprotein, extracellular domain; Dimer in solution when alone (SEC-MALS, SEC-SAXS); Used glyco-intact or EndoH-treated, as told for each assay; also called soluble recombinant U20; source: stably transduced HEK293 GnTI cells, purified from supernatant (Nickel-NTA, cation exchange, SEC); in some cases treated with EndoH; not shown: 6xHIS, C-terminal, kept
Description: SPR; Biacore 3000; biotinylated ULBP1-Fc (1000-2500 RU) on a Neutravidin coated CM5 chip; U20 injected at 0.125-32 μM; CD200 receptor Fc flow cell subtracted; equilibrium fit, one site specific binding, apparent; 20°C. As to conditions: both partners purified.

B1: ULBP1-Fc (Fc fusion)
chain: GWVDTHCLCYDFIITPKSRPEPQWCEVQGLVDERPFLHYDCVNHKAKAFASLGKKVNVTKTWEEQTETLRDVVDFLKGQLLDIQVENLIPIEPLTLQARMSCEHEAHGHGRGSWQFLFNGQKFLLFDSNNRKWTALHPGAKKMTEKWEKNRDVTMFFQKISLGDCKMWLEEFLMYWEQMLDPTKPPSLAPG
modifications: biotin on the BirA recognition sequence (for SPR)
For B1, the Kd is around 230 nM.
